{"source": "patent US11285197B2", "about": "“Mesothelin vaccines and model systems” (priority 2002, dated 2022)", "biological_target": "T1, HLA-A2 (Homo sapiens, UniProt P04439, D140Y/D185E/D98H/E176V/E277Q/G131W/G231S/I119V/I121R/I166T/I218V/L300P/L318F/N151K/N90K/P208A/P217A/Q86G/Q94H/R138H/R169H/T345S)", "T1 construct": "pulsing TAP deficient T2 cells that expressed the corresponding HLA class I molecule (T2-A2, T2-A3, or T2-A24 cells); endogenous in cells; host or cells: human T2 cells (TAP-deficient B/T lymphoblast hybrid), called T2-A2", "assay": "T2 peptide/MHC binding assay, T2-A2 cells, W6/32 staining, flow cytometry", "conditions": "T2-A2 cells pulsed with peptide, HLA class I antibody W6/32, flow cytometry", "data": [{"sequence": "EIDESLIFY (listed as Homo sapiens)", "values": [{"measurement": "detection of HLA-A2 on the cell surface of peptide-pulsed T2-A2 cells", "value": "do not stain"}]}]}
